Here are results for two substances from article doi:10.1101/2022.08.17.504309.

The target in this assay is C-type lectin domain of CD62P (P-selectin), residues 1-117, wild type (UniProt P16109). Description: ELISA. In general terms: ELISA stands for enzyme-linked immunosorbent assay.
UniProt P16109, sequence (P16109 42-158): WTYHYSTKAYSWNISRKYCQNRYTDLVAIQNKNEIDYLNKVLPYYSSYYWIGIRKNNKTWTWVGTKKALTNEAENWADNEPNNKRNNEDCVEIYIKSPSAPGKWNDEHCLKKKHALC

For “soluble integrin αvβ3 (from UniProt P06756;P05106) (complex)”, the fold binding against the combined lectin and EGF-like domains worked out at 2 fold. With “soluble recombinant integrin αIIbβ3 (from UniProt P08514;P05106) (complex)” the figure was 2 fold.
